Data taken from article PMC7201719.

Columns and labels:
[1] = target: Heat shock cognate 71 kDa protein (chicken (endogenous in DF-1)) (UniProt O73885)
[2] = target: Heat shock cognate 71 kDa protein (chicken (endogenous in DF-1)) (UniProt O73885); remark: listed apart in the source

UniProt O73885, sequence (O73885 whole entry): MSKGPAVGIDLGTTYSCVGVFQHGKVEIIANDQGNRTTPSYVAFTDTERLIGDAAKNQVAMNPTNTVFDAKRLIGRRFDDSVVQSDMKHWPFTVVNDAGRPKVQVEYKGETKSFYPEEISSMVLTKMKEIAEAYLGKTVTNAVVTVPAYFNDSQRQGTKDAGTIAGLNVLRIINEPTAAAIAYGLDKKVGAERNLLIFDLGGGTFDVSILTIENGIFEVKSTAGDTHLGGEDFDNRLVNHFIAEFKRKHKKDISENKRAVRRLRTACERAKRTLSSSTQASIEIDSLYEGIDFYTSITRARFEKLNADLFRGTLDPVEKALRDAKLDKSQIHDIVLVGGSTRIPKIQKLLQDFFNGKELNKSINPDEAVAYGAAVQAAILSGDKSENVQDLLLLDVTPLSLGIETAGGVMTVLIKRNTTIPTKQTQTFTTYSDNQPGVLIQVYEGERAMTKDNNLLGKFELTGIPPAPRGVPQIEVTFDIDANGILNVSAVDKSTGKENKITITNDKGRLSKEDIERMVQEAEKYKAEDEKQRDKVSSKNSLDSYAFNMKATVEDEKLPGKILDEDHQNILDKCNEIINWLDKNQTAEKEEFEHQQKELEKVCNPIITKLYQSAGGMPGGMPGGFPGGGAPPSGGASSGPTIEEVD

## IBDV VP2 protein (natural protein)
[1]
  viral titer of IBDV in DF-1 cells pretreated with 5 uM of the HSC70 inhibitor VER155008, 24-72 h after infection (untreated control 3.15-7.23), whole IBDV virus (log10TCID50/mL): 0
[2]
  VP2/GAPDH by western blot in DF-1 cells pretreated with anti-HSC70 antibody at 25, 12.5 and 6.25 ug/mL and infected with IBDV (normal IgG 3.329, no antibody 3.345): 1.43 VP2/GAPDH
